Reference: US20250262210A1 (TRUSTEES OF COLUMBIA UNIVERSITY IN THE CITY OF NEW YORK, published 2025)

Tests used:
Experiment in all cases: IP/MS, LZTR1 wild type-FLAG, U87
[1] = target: CDC42BPA (human, UniProt Q5VT25 1-1732, limits assumed)
Procedure, shortened: (§1)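 Read-out: spectral counts from LC-MS/MS (Orbitrap Fusion) after MaxQuant identification. Variable modifications were Met oxidation, protein N-terminal acetylation and N/Q deamidation.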

[2] = target: THADA (human, UniProt Q6YHU6 1-1953, limits assumed)
Procedure, shortened: as §1

[3] = target: T1, FHOD1 (human, UniProt Q9Y613 2-1164)
T1 sequence (looked up): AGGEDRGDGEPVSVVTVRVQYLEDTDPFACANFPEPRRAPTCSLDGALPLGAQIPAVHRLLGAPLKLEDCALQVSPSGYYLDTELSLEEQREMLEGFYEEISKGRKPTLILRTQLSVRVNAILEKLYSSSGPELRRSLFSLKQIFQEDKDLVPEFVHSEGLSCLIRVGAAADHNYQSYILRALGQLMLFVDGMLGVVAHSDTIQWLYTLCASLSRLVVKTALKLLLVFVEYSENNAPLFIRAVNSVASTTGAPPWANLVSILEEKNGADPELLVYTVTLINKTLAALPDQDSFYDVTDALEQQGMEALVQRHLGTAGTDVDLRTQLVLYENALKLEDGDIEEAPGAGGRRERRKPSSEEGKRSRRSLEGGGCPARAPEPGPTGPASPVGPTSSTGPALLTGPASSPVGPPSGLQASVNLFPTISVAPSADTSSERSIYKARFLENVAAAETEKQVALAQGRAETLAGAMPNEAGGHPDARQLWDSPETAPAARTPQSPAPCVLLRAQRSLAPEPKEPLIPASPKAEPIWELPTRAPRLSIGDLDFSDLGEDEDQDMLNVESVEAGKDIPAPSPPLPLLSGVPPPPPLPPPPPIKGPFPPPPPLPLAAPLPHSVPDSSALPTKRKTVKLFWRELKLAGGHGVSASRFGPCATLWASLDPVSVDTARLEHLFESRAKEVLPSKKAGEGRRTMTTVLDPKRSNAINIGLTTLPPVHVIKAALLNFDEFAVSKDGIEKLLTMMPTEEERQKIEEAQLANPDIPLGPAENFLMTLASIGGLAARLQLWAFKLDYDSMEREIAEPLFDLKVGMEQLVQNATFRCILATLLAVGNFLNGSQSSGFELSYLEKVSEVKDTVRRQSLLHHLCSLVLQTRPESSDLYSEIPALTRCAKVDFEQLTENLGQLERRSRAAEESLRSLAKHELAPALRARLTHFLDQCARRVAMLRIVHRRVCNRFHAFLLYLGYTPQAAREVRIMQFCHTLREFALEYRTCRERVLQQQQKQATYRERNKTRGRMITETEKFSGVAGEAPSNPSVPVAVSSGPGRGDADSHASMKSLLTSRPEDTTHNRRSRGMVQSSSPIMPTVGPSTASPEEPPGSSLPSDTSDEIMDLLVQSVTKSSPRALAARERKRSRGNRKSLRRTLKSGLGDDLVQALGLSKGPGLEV
Procedure, shortened: as §1

[4] = target: BRCA2 (human, UniProt P51587 1-3418)
Procedure, shortened: as §1

BRCA2, sequence (P51587 whole entry): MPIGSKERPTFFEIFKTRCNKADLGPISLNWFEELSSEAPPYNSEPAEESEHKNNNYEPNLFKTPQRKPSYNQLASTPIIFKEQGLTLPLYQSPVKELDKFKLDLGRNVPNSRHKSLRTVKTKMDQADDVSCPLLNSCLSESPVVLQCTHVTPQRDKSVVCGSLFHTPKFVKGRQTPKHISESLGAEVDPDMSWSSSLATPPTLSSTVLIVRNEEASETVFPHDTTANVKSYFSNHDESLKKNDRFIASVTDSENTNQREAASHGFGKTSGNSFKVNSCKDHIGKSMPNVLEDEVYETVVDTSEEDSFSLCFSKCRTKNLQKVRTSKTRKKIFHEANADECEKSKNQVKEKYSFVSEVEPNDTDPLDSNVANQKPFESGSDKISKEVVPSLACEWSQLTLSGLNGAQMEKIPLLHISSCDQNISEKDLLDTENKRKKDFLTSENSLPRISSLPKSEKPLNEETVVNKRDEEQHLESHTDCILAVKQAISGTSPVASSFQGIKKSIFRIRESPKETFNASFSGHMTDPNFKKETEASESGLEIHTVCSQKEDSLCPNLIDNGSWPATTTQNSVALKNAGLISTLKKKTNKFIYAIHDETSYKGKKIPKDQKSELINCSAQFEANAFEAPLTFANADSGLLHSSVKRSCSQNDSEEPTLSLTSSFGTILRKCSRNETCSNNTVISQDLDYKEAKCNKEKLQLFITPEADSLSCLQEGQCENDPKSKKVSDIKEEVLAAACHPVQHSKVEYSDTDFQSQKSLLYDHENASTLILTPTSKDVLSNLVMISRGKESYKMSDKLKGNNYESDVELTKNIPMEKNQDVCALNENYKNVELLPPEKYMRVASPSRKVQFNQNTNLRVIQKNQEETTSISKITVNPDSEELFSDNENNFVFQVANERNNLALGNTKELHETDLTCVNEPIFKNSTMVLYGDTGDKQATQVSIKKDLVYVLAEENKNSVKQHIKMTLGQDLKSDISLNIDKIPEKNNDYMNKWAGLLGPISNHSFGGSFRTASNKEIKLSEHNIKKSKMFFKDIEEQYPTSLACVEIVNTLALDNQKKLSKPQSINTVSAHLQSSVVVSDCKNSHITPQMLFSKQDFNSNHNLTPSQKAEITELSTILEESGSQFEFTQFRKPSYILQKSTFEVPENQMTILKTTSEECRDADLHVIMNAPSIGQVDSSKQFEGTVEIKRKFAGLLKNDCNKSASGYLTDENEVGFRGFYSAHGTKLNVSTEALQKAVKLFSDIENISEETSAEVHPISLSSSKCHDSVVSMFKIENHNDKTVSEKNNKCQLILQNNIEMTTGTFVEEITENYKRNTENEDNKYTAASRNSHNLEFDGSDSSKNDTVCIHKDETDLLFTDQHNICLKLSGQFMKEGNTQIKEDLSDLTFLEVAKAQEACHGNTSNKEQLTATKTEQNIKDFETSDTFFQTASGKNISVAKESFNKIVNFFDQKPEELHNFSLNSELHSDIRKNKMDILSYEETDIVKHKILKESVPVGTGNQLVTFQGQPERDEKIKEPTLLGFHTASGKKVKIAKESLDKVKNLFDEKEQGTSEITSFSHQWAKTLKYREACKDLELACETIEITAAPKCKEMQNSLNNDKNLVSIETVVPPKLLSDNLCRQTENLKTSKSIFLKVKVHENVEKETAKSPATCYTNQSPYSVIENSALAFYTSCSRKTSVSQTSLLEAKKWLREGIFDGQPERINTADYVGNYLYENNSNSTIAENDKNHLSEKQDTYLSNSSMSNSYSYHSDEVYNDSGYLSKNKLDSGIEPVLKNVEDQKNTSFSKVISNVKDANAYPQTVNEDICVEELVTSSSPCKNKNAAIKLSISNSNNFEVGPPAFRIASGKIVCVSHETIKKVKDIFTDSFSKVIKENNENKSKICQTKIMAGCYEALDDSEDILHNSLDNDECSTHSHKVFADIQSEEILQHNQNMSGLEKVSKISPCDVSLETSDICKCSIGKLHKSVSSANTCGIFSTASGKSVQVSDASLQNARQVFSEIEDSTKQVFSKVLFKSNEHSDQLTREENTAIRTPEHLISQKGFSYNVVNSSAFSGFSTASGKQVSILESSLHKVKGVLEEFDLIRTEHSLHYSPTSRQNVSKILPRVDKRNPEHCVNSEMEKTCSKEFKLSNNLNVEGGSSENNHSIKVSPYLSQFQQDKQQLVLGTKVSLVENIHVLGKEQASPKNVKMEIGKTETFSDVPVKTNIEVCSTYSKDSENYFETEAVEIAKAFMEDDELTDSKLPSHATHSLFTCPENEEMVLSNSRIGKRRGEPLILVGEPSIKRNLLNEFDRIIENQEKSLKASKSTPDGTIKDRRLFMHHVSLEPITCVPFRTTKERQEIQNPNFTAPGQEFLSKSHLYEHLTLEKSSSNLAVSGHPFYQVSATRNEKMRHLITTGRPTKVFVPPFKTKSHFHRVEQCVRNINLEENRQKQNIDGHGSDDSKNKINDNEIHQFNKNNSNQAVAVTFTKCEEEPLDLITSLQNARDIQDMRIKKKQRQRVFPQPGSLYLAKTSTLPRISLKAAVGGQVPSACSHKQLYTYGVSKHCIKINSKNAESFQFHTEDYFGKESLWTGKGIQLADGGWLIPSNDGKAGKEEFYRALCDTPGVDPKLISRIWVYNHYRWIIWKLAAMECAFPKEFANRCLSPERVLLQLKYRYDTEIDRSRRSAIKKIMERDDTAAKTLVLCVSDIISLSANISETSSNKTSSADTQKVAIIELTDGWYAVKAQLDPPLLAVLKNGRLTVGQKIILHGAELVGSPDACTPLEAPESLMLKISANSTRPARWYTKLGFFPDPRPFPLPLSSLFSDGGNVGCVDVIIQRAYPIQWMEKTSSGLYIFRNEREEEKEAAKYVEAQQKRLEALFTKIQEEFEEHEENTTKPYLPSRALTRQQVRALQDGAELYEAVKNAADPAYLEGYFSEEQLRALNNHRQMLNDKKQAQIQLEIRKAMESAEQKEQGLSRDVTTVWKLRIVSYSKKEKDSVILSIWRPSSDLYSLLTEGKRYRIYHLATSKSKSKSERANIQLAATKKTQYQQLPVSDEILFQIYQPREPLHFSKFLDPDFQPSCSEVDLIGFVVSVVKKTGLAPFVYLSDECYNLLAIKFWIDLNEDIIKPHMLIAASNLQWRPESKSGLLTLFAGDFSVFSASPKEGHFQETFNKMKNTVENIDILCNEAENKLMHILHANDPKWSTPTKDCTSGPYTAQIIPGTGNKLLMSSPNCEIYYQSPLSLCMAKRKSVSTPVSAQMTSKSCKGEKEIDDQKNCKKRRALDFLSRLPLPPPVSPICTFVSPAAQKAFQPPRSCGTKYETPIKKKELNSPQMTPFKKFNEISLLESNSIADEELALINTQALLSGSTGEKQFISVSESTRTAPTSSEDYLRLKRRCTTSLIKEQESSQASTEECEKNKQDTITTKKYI
CDC42BPA, sequence (Q5VT25 whole entry, the tested form may be a part): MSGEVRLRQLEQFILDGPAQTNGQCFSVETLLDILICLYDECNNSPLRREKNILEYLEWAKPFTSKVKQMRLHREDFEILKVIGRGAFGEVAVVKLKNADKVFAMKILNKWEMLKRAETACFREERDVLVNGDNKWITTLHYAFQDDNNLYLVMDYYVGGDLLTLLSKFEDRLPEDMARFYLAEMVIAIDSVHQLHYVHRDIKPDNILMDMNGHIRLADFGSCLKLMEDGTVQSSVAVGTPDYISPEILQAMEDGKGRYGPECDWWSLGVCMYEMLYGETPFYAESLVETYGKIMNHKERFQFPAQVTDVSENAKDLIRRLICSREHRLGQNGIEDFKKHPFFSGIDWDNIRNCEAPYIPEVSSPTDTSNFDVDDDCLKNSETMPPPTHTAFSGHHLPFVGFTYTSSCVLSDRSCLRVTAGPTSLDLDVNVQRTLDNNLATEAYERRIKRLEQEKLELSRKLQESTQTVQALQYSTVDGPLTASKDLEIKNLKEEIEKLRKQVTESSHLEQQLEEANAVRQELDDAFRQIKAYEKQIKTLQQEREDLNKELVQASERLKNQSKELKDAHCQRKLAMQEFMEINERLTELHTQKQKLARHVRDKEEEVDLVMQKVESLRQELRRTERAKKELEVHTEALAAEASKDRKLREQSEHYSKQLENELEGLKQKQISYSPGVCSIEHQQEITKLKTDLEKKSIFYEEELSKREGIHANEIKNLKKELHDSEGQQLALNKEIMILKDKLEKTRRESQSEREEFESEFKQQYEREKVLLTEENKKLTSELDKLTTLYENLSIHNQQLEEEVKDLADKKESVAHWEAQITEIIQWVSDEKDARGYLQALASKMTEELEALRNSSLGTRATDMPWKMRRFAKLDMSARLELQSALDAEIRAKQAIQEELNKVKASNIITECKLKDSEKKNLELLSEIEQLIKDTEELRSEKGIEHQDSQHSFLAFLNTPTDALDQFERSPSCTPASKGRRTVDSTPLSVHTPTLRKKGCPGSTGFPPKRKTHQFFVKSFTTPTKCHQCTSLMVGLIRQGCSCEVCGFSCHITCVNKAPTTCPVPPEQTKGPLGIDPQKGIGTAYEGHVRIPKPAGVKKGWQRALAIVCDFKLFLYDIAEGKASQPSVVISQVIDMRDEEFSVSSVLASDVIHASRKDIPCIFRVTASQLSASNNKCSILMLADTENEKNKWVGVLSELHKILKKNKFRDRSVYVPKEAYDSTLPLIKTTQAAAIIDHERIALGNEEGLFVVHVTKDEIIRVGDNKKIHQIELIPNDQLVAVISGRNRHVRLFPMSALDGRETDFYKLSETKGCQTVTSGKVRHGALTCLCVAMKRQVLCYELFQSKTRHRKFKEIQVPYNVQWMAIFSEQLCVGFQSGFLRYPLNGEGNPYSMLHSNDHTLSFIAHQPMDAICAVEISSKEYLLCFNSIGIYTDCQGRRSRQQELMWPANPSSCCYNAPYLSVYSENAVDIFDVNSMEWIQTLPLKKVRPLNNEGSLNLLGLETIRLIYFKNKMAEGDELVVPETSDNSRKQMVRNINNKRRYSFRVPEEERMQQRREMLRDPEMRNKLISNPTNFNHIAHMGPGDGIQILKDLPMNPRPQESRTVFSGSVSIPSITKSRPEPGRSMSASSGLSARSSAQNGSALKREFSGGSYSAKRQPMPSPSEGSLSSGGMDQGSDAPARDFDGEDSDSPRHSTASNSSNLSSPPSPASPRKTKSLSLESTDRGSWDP

binding result [1]: binds
binding result [2]: binds
binding result [3]: binds
binding result [4]: binds
B1: LZTR1-FLAG (other, human, UniProt Q8N653 1-840, looked up)
chain: MAGPGSTGGQIGAAALAGGARSKVAPSVDFDHSCSDSVEYLTLNFGPFETVHRWRRLPPCDEFVGARRSKHTVVAYKDAIYVFGGDNGKTMLNDLLRFDVKDCSWCRAFTTGTPPAPRYHHSAVVYGSSMFVFGGYTGDIYSNSNLKNKNDLFEYKFATGQWTEWKIEGRLPVARSAHGATVYSDKLWIFAGYDGNARLNDMWTIGLQDRELTCWEEVAQSGEIPPSCCNFPVAVCRDKMFVFSGQSGAKITNNLFQFEFKDKTWTRIPTEHLLRGSPPPPQRRYGHTMVAFDRHLYVFGGAADNTLPNELHCYDVDFQTWEVVQPSSDSEVGGAEVPERACASEEVPTLTYEERVGFKKSRDVFGLDFGTTSAKQPTQPASELPSGRLFHAAAVISDAMYIFGGTVDNNIRSGEMYRFQFSCYPKCTLHEDYGRLWESRQFCDVEFVLGEKEECVQGHVAIVTARSRWLRRKITQARERLAQKLEQEAAPVPREAPGVAAGGARPPLLHVAIREAEARPFEVLMQFLYTDKIKYPRKGHVEDVLLIMDVYKLALSFQLCRLEQLCRQYIEASVDLQNVLVVCESAARLQLSQLKEHCLNFVVKESHFNQVIMMKEFERLSSPLIVEIVRRKQQPPPRTPLDQPVDIGTSLIQDMKAYLEGAGAEFCDITLLLDGHPRPAHKAILAARSSYFEAMFRSFMPEDGQVNISIGEMVPSRQAFESMLRYIYYGEVNMPPEDSLYLFAAPYYYGFYNNRLQAYCKQNLEMNVTVQNVLQILEAADKTQALDMKRHCLHIIVHQFTKVSKLPTLRSLSQQLLLDIIDSLASHISDKQCAELGADI
notes: Expressed in HEK 293T, HeLa or U87 cells; used as cell lysate; also called LZTR1 wild type-FLAG; LZTR1 WT; not shown: FLAG tag at the C-terminus
